Where two headings read alike, the source gives them in different places.
Experiments:
TGFβ1 (R&D systems) [1] = target: TGFβ1 (R&D systems) (UniProt P01137); assay: cell-based or functional assay
TGFβ1 (R&D systems) [2] = target: TGFβ1 (R&D systems) (UniProt P01137); assay: cell-based or functional assay; remark: listed apart in the source

Sequence of TGFβ1 (R&D systems) (P01137 279-390 limits assumed): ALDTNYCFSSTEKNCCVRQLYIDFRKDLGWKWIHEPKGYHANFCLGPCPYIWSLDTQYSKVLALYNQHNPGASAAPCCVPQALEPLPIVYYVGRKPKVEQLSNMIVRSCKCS

**Q.** “TGFR-Fc (R&D Systems) (from UniProt P37173 24-159) (Fc fusion)” was tested. Which IC50 of TGFβ1 activity in HEK-Blue TGFβ cells (TGFβ1 (R&D systems) [1]) did it give?
**A.** 0.461 nM

**Q.** And the IC50 of TGFβ1 activity in HEK-Blue TGFβ cells (TGFβ1 (R&D systems) [2])?
**A.** 0.559 nM
